The values that follow are results of earlier work, collected in article PMC10845085.

For the data set, the target named is Neurotensin (Homo sapiens) (UniProt P30990).

One may read the Kd as the free concentration of one partner at which half of the binding sites on the other are occupied at equilibrium, for simple one-to-one binding. With “Neurotensin receptor 2 (from UniProt O95665)”, the dissociation constant (Kd) is 6 nM.
